Blank lines part the entries; values can stand above or below the binder they belong to.
B1: human PRDM14 (residues 238–487) (domain or fragment, UniProt Q9GZV8 238-487, looked up)
chain: LPQTLDKDSLQLPEGLCLMQTVFGEVPHFGVFCSSFIAKGVRFGPFQGKVVNASEVKTYGDNSVMWEIFEDGHLSHFIDGKGGTGNWMSYVNCARFPKEQNLVAVQCQGHIFYESCKEIHQNQELLVWYGDCYEKFLDIPVSLQVTEPGKQPSGPSEESAEGYRCERCGKVFTYKYYRDKHLKYTPCVDKGDRKFPCSLCKRSFEKRDRLRIHILHVHEKHRPHKCSTCGKCFSQSSSLNKHMRVHSGDR
modifications: biotin (biotin-acceptor tag)
notes: vector based on p28BIOH-LIC; expression vector from the Structural Genomics Consortium; also called hPRDM14; source: E. coli BL21 (DE3) with pBirACm and 50 μM biotin, purified (Ni-Sepharose); not shown: biotin-acceptor tag, N-terminal, kept
B2: Mb(hPRDM14_S4) displayed on the yeast surface (designed binder)
chain: VSSVPTKLEVVAATPTSLLISWDAPAVTVDLYFITYGETGGNSPVQKFTVPGSKSTATISGLKPGVDYTITVYAQYYYRGWYVGSPISINYRT

Tests used:
[1] = molecular target: B2; assay: yeast surface display; monobodies on the yeast surface with 50 nM of hPRDM14 or a homologue; details: one partner purified
[2] = molecular target: B1; assay: yeast surface display; KD of monobody clones displayed on yeast for hPRDM14; details: one partner purified
[3] = molecular target: T1, recombinant Prdm14 pre-SET+SET domains (residues 184–373) (mouse, UniProt E9Q3T6 184-373, biotin (biotin-acceptor tag)); assay: bead-based binding assay; biotinylated Prdm14 immobilised on streptavidin M280 beads, biotinylated Mtgr1 (NHR1) in solution, detected with SAV-Dylight650 by flow cytometer; 50 mM Tris–HCl, 150 mM NaCl, pH 8, 1 mg/ml BSA, 1 mM EDTA, 0.1 mM DTT; 1:1 model; details: both partners purified
T1 construct: gene assembled from synthetic oligonucleotides in the pHBT vector; a TEV site lies between the tags and the protein; also called mouse Prdm14; source: E. coli BL21 (DE3) with pBirACm and 50 μM biotin, purified (Ni-Sepharose); not shown: biotin-acceptor tag, N-terminal, kept
T1 sequence (looked up): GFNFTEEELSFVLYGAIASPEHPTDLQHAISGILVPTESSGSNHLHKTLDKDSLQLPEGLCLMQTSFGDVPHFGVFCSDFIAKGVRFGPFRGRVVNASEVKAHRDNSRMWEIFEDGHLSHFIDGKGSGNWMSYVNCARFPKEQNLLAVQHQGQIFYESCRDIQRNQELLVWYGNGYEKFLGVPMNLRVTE

[4] = molecular target: T2, recombinant Prdm14 (residues 184–373) E294K (mouse, UniProt E9Q3T6 184-373, E294K, biotin (biotin-acceptor tag)); assay: bead-based binding assay; biotinylated Mtgr1 (NHR1) immobilised on streptavidin M280 beads, biotinylated Prdm14 in solution, detected with SAV-Dylight650 by flow cytometer; 50 mM Tris–HCl, 150 mM NaCl, pH 8, 1 mg/ml BSA, 1 mM EDTA, 0.1 mM DTT; 1:1 model; details: both partners purified
T2 construct: also called E294K Prdm14; source: E. coli BL21 (DE3) with pBirACm and 50 μM biotin, purified (Ni-Sepharose); not shown: biotin-acceptor tag, N-terminal, kept
T2 sequence (looked up): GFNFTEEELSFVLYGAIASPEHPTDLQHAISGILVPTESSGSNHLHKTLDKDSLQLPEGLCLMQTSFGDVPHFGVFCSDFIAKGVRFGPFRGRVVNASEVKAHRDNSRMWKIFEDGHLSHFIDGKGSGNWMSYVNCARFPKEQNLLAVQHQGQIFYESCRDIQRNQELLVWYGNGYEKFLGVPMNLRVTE

Binder: B1
fold stronger binding than hPRDM6 and hPRDM12 [1]: ≥ 5 fold

Binder: B2
Kd [2]: < 100 nM

binding result [3]: binds
B3: recombinant Mtgr1 NHR1 domain (residues 98–206) (domain or fragment, mouse, UniProt O70374 98-206, looked up)
chain: LPATCGARQLSKLKRFLTTLQQFGNDISPEIGEKVRTLVLALVNSTVTIEEFHCKLQEATNFPLRPFVIPFLKANLPLLQRELLHCARAAKQTPSQYLAQHEKLLLNTS
modifications: biotin (biotin-acceptor tag)
notes: Mtgr1 (Cbfa2t2), residues 98–206 (NHR1/TAFH domain), with H200K from a cloning artifact; pHBT vector; a TEV site lies between the tags and the protein; also called wt Mtgr1; source: E. coli BL21 (DE3) with pBirACm and 50 μM biotin, purified (Ni-Sepharose); not shown: biotin-acceptor tag, N-terminal, kept

binding result [4]: binds
B4: recombinant Mtgr1 NHR1 domain (residues 98–206) K109E (domain or fragment, mouse, UniProt O70374 98-206, looked up)
chain: LPATCGARQLSELKRFLTTLQQFGNDISPEIGEKVRTLVLALVNSTVTIEEFHCKLQEATNFPLRPFVIPFLKANLPLLQRELLHCARAAKQTPSQYLAQHEKLLLNTS
modifications: biotin (biotin-acceptor tag)
notes: Mtgr1 (Cbfa2t2), residues 98–206, K109E on the pHBT construct that carries H200K; also called Mtgr1(K109E); source: E. coli BL21 (DE3) with pBirACm and 50 μM biotin, purified (Ni-Sepharose); not shown: biotin-acceptor tag, N-terminal, kept

From article PMC4749557, “ETO family protein Mtgr1 mediates Prdm14 functions in stem cell maintenance and primordial germ cell formation” (eLife, 2015)
